The record followed here is publication PMC11855083.

The target in this data set is T1, His6-NfxB (Pseudomonas aeruginosa PAO1?) (UniProt P32265).
T1 sequence: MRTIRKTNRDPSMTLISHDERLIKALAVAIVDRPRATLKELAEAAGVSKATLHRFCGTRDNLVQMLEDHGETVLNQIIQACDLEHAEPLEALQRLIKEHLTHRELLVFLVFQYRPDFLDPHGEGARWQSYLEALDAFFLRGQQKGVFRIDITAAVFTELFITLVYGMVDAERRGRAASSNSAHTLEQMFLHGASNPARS
Kind of data set: EMSA. To be noted: pH 7.0, room temperature, 10 min ([…].

In the case of “ACGCAAATCAGCCATGACACACCCGACCGTTGATTGAAAACGGATCGAATGGTACTTTTTCGAGCTAATTGAGTCAATATTGTCTCAAATGATCTTTTGACAGCTAATTCCTTTGGACGCGAGGCCAGTTTTCTGCACAATGCGCACAATCAGAAAAACCAACCGGGACCCATCGATGACCCTGAT (double strand) [mexC promoter]”, the binding entry is “binds”.
As to “ATCTTTCCTCCCGTGTGGCTCGCGCCACTACGCTATGCAAGCGCCCGCCACCATGGCAGGCGCTGTCGTTGAATGCCTCAGGCCTCTTTGGCCGAAGGCAGCTTGGA (double strand) [hcp1T (hcp1 promoter with potential NfxB motif truncated)]”, the binding entry is listed as “no binding”.
The entry for “TCCAAGCTGCCTTCGGCCAAAGAGGCCTGAGGCATTCAACGACAGCGCCTGCCATGGTGGCGGGCGCTTGCATAGCGTAGTGGCGCGAGCCACACGGGAGGAAAGATGGCTGTTGATATGTTCATCAAGATCGGC (double strand) [hcp1 promoter (phcp1)]” is “binds”.
